From patent US20240240160A1, “NOVEL OLIVETOL SYNTHASES FOR C[…]” (priority 2021, published 2024) come the findings set out here.

Test [1] has as its system E. coli derivative strain which overexpressed an acyl-CoA synthetase (fadD) gene and expressed an olivetolic acid cyclase (OAC) from Cannabis sativa. In words: OL, OLA and PDAL production in E. coli from plasmid-expressed Type-III PKS genes. The format is cell-based. As to conditions: gene on plasmid; for Total: OL + OLA + PDAL; for OL / OLA / PDAL: constitutive promoter, culture spiked with 4 mM hexanoic acid. As for the experimental part: (§1) To test olivetolic acid production in E. coli, strains comprising a putative OLS gene and an OAC gene from C. sativa were inoculated in multi-well plates containing LB supplemented with 1% glucose and appropriate concentrations of antibiotics. After 6 hours of cultivation at 32° C., the cells were transferred with a 10% inoculum to a P-limited seed medium (see Table 2) and cultivated for ˜18 hours at 32° ° C. to reach an OD of 2.0-4.0. The cultures were transferred with a 20% inoculum in a P-minimal medium (see Table 3) supplemented with 2% glucose and appropriate concentrations of antibiotics. After 3 hours of cultivation at 32° C., the culture was spiked with 4 mM hexanoic acid (˜OD 1.5-2.0). The resulting cultures were then harvested at either 3 hours or 21 hours post hexanoic acid spike; a final OD was taken. 300 μL of butyl acetate containing 500 mg/L undecanoic acid was added to each multi-well plate. The plates were then vortexed for 30 minutes at 1500 rpm and centrifuged for 10 minutes at 4500 rpm. 50 μL of organic layer was transferred to a 96-well plate and derivatized with 50 μL of N,O-Bis(trimethylsilyl)trifluoroacetamide (BSTFA). The plate was then incubated at room temperature for 2 hours to allow for complete derivatization. The samples were then run on GC-FID for analytical quantification of olivetolic acid (OLA), olivetol (OL), PDAL, and hexanoic acid.
(§2) Olivetol, PDAL, OLA, HTAL, CBGA and combinations thereof were analyzed by LCMS or LCMS/MS methods using C18 reversed phase chromatography coupled to either EXACTIVE™ (ThermoFisher) or QTRAP® 4500 (Sciex) mass spectrometers.
(§3) For reversed phase LCMS, compounds were identified by their LC retention times and MRM transitions specific to the compounds. LCMS/MS analysis was conducted on a Shimadzu UHPLC system coupled with AB Sciex QTRAP 4500 mass spectrometer. Agilent Eclipse XDB C18 column (4.6×3.0 mm, 1.8 μm) was used with a 1-min gradient elution at 1 mL/min using water containing 0.1% ammonia acetate as mobile phase A and 90% methanol containing 0.1% ammonia acetate as mobile phase B. The LC column temperature was maintained at 45° C. Negative ionization mode was used for all the analytes.
The genes for 20 Type-III PKS enzymes were codon optimized for E. coli and cloned under control of a constitutive promoter into an expression vector (p15a replicon, carbenicillin resistance marker). The 20 plasmids were transformed into an E. coli derivative strain which overexpressed an acyl-CoA synthetase (fadD) gene and expressed an olivetolic acid cyclase (OAC) from Cannabis sativa.
(§4) The in vivo assay procedure and analytical methods were performed as described above.

For test [2] the test system is unchanged. In words: OL, OLA and PDAL production in E. coli from genome-integrated Type-III PKS genes. The format is cell-based. As for the experimental part: as §1, §2, §3
Three of the type-III PKS genes from Example 1 were integrated under control of a constitutive promoter into an E. coli derivative strain which overexpressed an acyl-CoA synthetase (fadD) gene and expressed an olivetolic acid cyclase (OAC) from Cannabis sativa.
as §4

The mark [3] stands for this setting: constitutive promoter, 4 mM hexanoic acid.

B1: AFU07709.1: Type-III PKS enzyme from Paphiopedilum armeniacum (protein, listed as Paphiopedilum armeniacum)
chain: MPGLENRKKVEAPKREEGLATIMAIGRANPPNAMEQSTFPDFYFRVTNSEHMVGLKKKFQRICEKTAIRRRHFVWNEEILNANPCMCTHMEPSLNVGQKIVVAEIPKLGAEAASRAIEVWGQPKSRITHLIFCTTSSMDLLGADYKITRILGLNLNVQRGMLYQQGCFAGGTVLRLAKCFTESQKGTRVLVVCSENAIILVRASSEDYQDDLVTQALFADGASALIVGEDPDEEAKERPIFTIISTTHVILPDSDGAIGGHLGEGGLMATLQRDVPFIISKNVNTCLEESFAPLVISDWNSVFWAPHSGGRAILDQVEERAGLKPEKLWASRHVLAKYGNMSSVCVHFVLDEIRKRSTKEGKTTTGEGFDWGVLFGFGLGLTVETVILRSVPLN
modifications: (1)..(394) AFU07709.1
Turning to B1, in test [1], the Total turned out to be 0 µM, the OL amounted to 0 µM, the OLA worked out at 0 µM and the PDAL stood at 0 µM.

B2: AFU07710.1: Type-III PKS enzyme from Paphiopedilum × areeanum (protein)
chain: MPGLENRKKVEVPKRAKDLATIMAIGRANPPNAVEQSTFPDFYFRVTNNEHLVGLMKKFQCICEKTVIRRRHFVWDEEILNANPCLRTHMEPSFNVRQKIAVAEIPKMGAEAASRAIKEWGQPKSRITYLIFYTMSGMDLPVTDYKLTRILNLNLNVYQVMLYQWDCIAGGTILCWAKCSAESQKGTRVLVVSSETTTVLVRAPSEDYHDDLVTQDLFGDGASALIVGADPDEEAKERPIFTIVSTSQVVLPDSDGVIGGHLSEGGLMATLHRDVALIISKNVSKCLEEAFVTLGISDWNSIFWAPHPCRRAILDQVEERVGLKPEKLWASRHVLAEFGNMTSVCVHFVLDEIHNRSTQGKTTTGEGFDWGVLFGFGPGLIVETVILRSVPLN
modifications: Paphiopedilum x areeanum; (1)..(393) AFU07710.1
Take B2: in test [1], the Total turned out to be 0 µM, the OL stood at 0 µM, the OLA is 0 µM and the PDAL amounted to 0 µM.

B3: A0A0D9W1R8: Type-III PKS enzyme from Leersia perrieri (protein, listed as Leersia perrieri)
chain: MGSQGEYYNKEGRGQAAILGIGSAVPPYELPQSSFPDYYFDVSNSNHRQDLKAKFAKICERTMIEKRCVYMSEEFLRSNPSVTAYSSPSIDVRQRLTDATVPELGAAAARVAIADWGRPASEISHLVMCSTVSGCMPGADYEVVKLLGLPLSTKRCMMYHIGCHGGGTVLRIAKDIAENNPGARVLVVCSEVISMALRGPSDSNMGNLVGQALFGDAGAAVVVGTDPVESCGERALFEMVAAMQDIIPDTEEMVAKLREDGLLYSLHRDVPVHIEANIEAIVNKSGVGAKAADWNEDVFWLVHPGGRDILDRVARRLGLRHDKVEVSREVMRKHGNTLSSCVVIAMEEMRRRSAERGMGTAGEGLEWGLLFGFGPGLTVETILLRAPLTHPPPCAHAAVRPQ
modifications: (1)..(402) ProtKB - A0A0D9W1R8
For B3, in test [1], the Total was 0 µM, the OL was 0 µM, the OLA is 0 µM and the PDAL worked out at 0 µM.

B4: XP_020572025.1: Type-III PKS enzyme from Phalaenopsis equestris (protein, listed as Phalaenopsis equestris)
chain: MPSFPSVKKAPTAEGFASILAIGRANPENFIEQSAYPDFFFRVTNSEHLVDLKKKFQRICDKTAIRKRHFVWNEEFLTANPCFSTFMDKSLNVRQEVAIREIPKLGAKAATKAIEDWGQPKSRITHLIFCTTSGMDLPGADYQLTQILGLNPNVERVMLYQQGCFAGGTTLRLAKCLAESRKGARVLVVCAETTTVLFRAPSEEHQDDLVTQALFADGASAVIAVIVGADPDEAADERASFVIVSASQVLLPDSAGAIGGHVSEGGLLATLHRDVPQIVSKNVGKCLEEAFTPFGISDWNSIFWVPHPGGRAILDQVEERVGLKPEKLSVSRHVLAEYGNMSSVCVHFALDEMRKRSAKEGKATTGEGLEWGVLFGFGPGLTVETVVLQSVPI
modifications: (1)..(393) XP_020572025.1
Regarding B4, in test [1], the Total is 0 µM, the OL came to 0 µM, the OLA was 0 µM and the PDAL came out at 0 µM.

B5: B1Q2B6: Cannabis sativa olivetol synthase (OLS), 3,5,7-trioxododecanoyl-CoA synthase (protein, listed as Cannabis sativa)
chain: MNHLRAEGPASVLAIGTANPENILLQDEFPDYYFRVTKSEHMTQLKEKFRKICDKSMIRKRNCFLNEEHLKQNPRLVEHEMQTLDARQDMLVVEVPKLGKDACAKAIKEWGQPKSKITHLIFTSASTTDMPGADYHCAKLLGLSPSVKRVMMYQLGCYGGGTVLRIAKDIAENNKGARVLAVCCDIMACLFRGPSESDLELLVGQAIFGDGAAAVIVGAEPDESVGERPIFELVSTGQTILPNSEGTIGGHIREAGLIFDLHKDVPMLISNNIEKCLIEAFTPIGISDWNSIFWITHPGGKAILDKVEEKLHLKSDKFVDSRHVLSEHGNMSSSTVLFVMDELRKRSLEEGKSTTGDGFEWGVLFGFGPGLTVERVVVRSVPIKY
modifications: (1)..(385) B1Q2B6 OLIS_CANSA 3,5,7-trioxododecanoyl-CoA synthase
Take B5: in test [1], the Total amounted to 1072 µM, the OL stood at 324 µM, the OLA is 279 µM and the PDAL came to 470 µM.

B6: PKU71375.1: Type-III PKS enzyme from Dendrobium catenatum (protein, listed as Dendrobium catenatum)
chain: MAQRADGSASILAIGKATPENFLEQSTYPDYFFRVTNSQHLIDLKKKFQRICDKTSIRKRHFILNEELITKNPCLSKFMENSINTRLEIYAKEIQKLAVEAATKAIQEWGQPKSCITHLIFSTLSDPGLPCGDYHLLQTLGLSPNIERVVILQHGCFAGGTMLRLAKCLAESHKGARVLVVSAETTTMLFRGPSEEHQEDLITQALFADGASALIVGVNPNETIGERASFVITSASQVILPNSSHAITGHLSEGGIKATIHKDVPNLLSNNIGKILEEAFTPLGISNWNSIFWVVHPGGRAILDQLEERVGLKPEKLMISRHVLAEYGNLMGVCVHFVLDEMRKRSIDEGNTTTGEGLEWGVLLGFGLGVTIETIVLQSVSL
modifications: (1)..(382) PKU71375.1
In the case of B6, in test [1], the Total stood at 0 µM, the OL stood at 0 µM, the OLA was determined as 0 µM and the PDAL was 0 µM.

B7: QCO76957.1: Type-III PKS enzyme from Dendrobium officinale (protein)
chain: MPSLESIRKAPRANGFASILAIGRANPENFIEQSTYPDFFFRITNSEHLVDLKKKFQRICDKTAIRKRHFVWNEEFITTNPCLHTFMDKSLDVRQEVAIREIPKLGAKAAAKAIQEWGQPKSRITHLIFCTTSGMDLPGADYQLTQILGLNPNVERVMLYQQGCFAGGTTLRLAKCLAESRKGARVLVVCAETTTVLFRGPSEEHQEDLVTQALFADGASALIVGADPDEAAHERASFVIVSTSQVLLPDSAGAIGGHVSEGGLLATLHRDVPKIVSKNVEKCLEEAFTPFGITDWNSIFWVPHPGGRAILDLVEERVGLKPEKLLVSRHVLAEYGNMSSVCVHFALDEMRKRSAIEGKATTGEGLEWGVVFGFGPGLTVETVVLRSVPL
modifications: Dendrobium officinale; (1)..(390) QCO76957.1
In the case of B7, in test [1], the Total was found to be 2095 µM, the “levels of OLA relative to the E. coli strain with OLS from C. sativa” value is recorded as “over two-fold”, the OL came out at 579 µM and the OLA was found to be 754 µM. Also, in test [1], the PDAL came to 761 µM. The “products produced by strains with chromosomally expressed enzyme” value in test [2] is “produced olivetol (OL), olivetolic acid (OLA) and pentyl diacetic acid lactone (PDAL)”. For the same molecule, the Total in test [2] (OL + OLA + PDAL) turned out to be 483 µM. In addition, in test [2] (setting [3]), the OL turned out to be 178 µM, the OLA worked out at 223 µM and the PDAL amounted to 82 µM.
